Source: publication PMC5346439

What was measured:
[1] = biological target: human MC3 (melanocortin receptor 3) (human) (UniProt P41968)
[2] = biological target: human MC4 (melanocortin receptor 4) (human) (UniProt P32245)
[3] = biological target: human MC5 (melanocortin receptor 5) (human) (UniProt P33032)
[4] = biological target: mouse MC3 (melanocortin receptor 3) (mouse) (UniProt P33033)
UniProt P33033, sequence (P33033 whole entry): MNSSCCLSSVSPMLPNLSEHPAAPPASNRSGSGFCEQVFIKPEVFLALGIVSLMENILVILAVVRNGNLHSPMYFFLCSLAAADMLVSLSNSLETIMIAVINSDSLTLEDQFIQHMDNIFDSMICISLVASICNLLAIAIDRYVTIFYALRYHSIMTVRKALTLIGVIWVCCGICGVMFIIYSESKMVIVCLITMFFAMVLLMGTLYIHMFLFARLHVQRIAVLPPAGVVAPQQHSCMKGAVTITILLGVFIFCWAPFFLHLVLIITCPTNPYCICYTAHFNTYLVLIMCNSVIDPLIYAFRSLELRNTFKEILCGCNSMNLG

UniProt P32245, sequence (P32245 whole entry): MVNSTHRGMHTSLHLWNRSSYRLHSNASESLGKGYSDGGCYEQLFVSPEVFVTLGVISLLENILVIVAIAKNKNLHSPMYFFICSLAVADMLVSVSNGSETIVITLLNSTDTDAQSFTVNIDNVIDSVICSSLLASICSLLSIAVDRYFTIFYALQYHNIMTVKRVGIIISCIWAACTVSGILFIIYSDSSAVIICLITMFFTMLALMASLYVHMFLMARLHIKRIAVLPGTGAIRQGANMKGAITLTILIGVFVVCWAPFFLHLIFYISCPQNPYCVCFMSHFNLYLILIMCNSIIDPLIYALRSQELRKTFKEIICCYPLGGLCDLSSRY
UniProt P33032, sequence (P33032 whole entry): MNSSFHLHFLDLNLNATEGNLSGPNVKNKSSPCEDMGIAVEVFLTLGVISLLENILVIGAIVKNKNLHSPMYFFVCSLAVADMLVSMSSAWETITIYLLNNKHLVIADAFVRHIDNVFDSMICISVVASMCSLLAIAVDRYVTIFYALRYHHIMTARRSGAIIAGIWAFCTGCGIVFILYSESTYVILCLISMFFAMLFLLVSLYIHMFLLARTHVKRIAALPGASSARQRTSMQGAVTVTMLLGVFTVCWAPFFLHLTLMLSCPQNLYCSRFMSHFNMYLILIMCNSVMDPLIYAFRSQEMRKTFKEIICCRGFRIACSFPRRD
UniProt P41968, sequence (P41968 whole entry): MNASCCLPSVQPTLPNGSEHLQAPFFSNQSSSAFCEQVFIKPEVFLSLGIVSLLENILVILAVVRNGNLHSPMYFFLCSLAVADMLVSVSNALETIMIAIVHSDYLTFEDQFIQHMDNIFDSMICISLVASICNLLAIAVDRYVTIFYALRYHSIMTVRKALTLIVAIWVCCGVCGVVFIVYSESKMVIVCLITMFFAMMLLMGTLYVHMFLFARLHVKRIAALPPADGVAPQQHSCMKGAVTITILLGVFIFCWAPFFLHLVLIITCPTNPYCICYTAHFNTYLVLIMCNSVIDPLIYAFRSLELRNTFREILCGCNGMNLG

For “αMSH (melanocyte-stimulating hormone) (peptide)”, the pEC50 of cAMP production (HTRF cAMP assay) in receptor-transfected cells, with 0-30 μM fenoprofen; 7.58 at 0 μM, highest at 30 μM [1] was 8.3 pEC50, the pEC50 of cAMP production (HTRF cAMP assay) in receptor-transfected cells, with 0-30 μM fenoprofen; 8.38 at 0 μM, highest at 30 μM [2] was 9.11 pEC50 and the pEC50 of cAMP production (HTRF cAMP assay) in receptor-transfected cells, with 0-30 μM fenoprofen; 6.64 at 0 μM, highest at 30 μM [3] was 7.22 pEC50. For the same substance, the pEC50 of cAMP production (HTRF cAMP assay) in receptor-transfected cells, with 0-30 μM fenoprofen; 8.33 at 0 μM, highest at 30 μM [4] was 8.86 pEC50.
Work on Lys-γ3MSH (peptide) yielded a pEC50 of cAMP production (HTRF cAMP assay) in receptor-transfected cells, with 0-30 μM fenoprofen; 8.80 at 0 μM, highest at 30 μM [1] of 9.35 pEC50, a pEC50 of cAMP production (HTRF cAMP assay) in receptor-transfected cells, with 0-30 μM fenoprofen; 7.33 at 0 μM, highest at 30 μM [2] of 7.72 pEC50 and a pEC50 of cAMP production (HTRF cAMP assay) in receptor-transfected cells, with 0-30 μM fenoprofen; 6.13 at 0 μM, highest at 30 μM [3] of 6.8 pEC50. For the same substance, the pEC50 of cAMP production (HTRF cAMP assay) in receptor-transfected cells, with 0-30 μM fenoprofen; 9.19 at 0 μM, highest at 10 μM [4] was 9.3 pEC50.
With ACTH (peptide) the pEC50 of cAMP production (HTRF cAMP assay) in receptor-transfected cells, with 0-30 μM fenoprofen; 8.19 at 0 μM, highest at 30 μM [1] was 8.87 pEC50, the pEC50 of cAMP production (HTRF cAMP assay) in receptor-transfected cells, with 0-30 μM fenoprofen; 8.76 at 0 μM, highest at 30 μM [2] was 9.25 pEC50 and the pEC50 of cAMP production (HTRF cAMP assay) in receptor-transfected cells, with 0-30 μM fenoprofen; 6.78 at 0 μM, highest at 30 μM [3] was 7.29 pEC50. For the same substance, the pEC50 of cAMP production (HTRF cAMP assay) in receptor-transfected cells, with 0-30 μM fenoprofen; 8.69 at 0 μM, highest at 30 μM [4] was 9.03 pEC50.
NDP-αMSH (peptide) was tested, and the pEC50 of cAMP production (HTRF cAMP assay) in receptor-transfected cells, with 0-30 μM fenoprofen; 9.40 at 0 μM, highest at 30 μM [1] was 9.66 pEC50, the pEC50 of cAMP production (HTRF cAMP assay) in receptor-transfected cells, with 0-30 μM fenoprofen; highest at 0 μM, 10.38 at 30 μM [2] was 10.5 pEC50 and the pEC50 of cAMP production (HTRF cAMP assay) in receptor-transfected cells, with 0-30 μM fenoprofen; 8.98 at 0 μM, highest at 10 μM [3] was 9.06 pEC50. For the same substance, the pEC50 of cAMP production (HTRF cAMP assay) in receptor-transfected cells, with 0-30 μM fenoprofen; 9.78 at 0 μM, highest at 3 μM [4] was 9.86 pEC50.
